Target: T1, mouse vimentin (VIM from wild-type C57BL/6J mouse bone marrow lysates) (mouse, UniProt P20152 2-466)
T1 construct: Endogenous protein in bone marrow lysate, denatured for SDS/PAGE and Western blot
Test: Western blot of bone marrow lysate
Procedure: To identify the protein recognized by the B1 antibody, antibodies were produced recombinantly in Expi293F cells. Purified B1 antibody (at a concentration of about 5-10 μg/ml) was incubated with human CD34⁺ cells, and immune complexes from cellular lysates were captured on a protein A/G column. Proteins that reacted with the antibody were identified by silver staining of SDS gels and their identity determined by mass spectrometry (MS). Three candidate proteins were identified above the background threshold (FIG. 5A). Vimentin (VIM) was one of the top hits and was confirmed to be B1 target antigen of B1 Ab by Western blotting. […] Also, VIM expression was found in human CD34⁺ cells by immunofluorescence cytochemistry using B1 or commercial VIM antibodies (FIG. 5C). The amino acid sequence identity between mouse and human VIM is greater than 97%.
Western blot: Cells were washed with PBS and then lysed in lysis buffer (50 mM Hlepes, pH 7.2, 150 mM NaCl, 50 mM NaF, 1 mM Na3VO₄, 10% glycerol, 1% Triton X-100). The lysates were then centrifuged at 12,000×g for 15 min at 4° C. The proteins were denatured in Laemmli sample buffer (5 min at 95° C.), separated by SDS/PAGE, and transferred to nitrocellulose membranes using the iBlot blotting system (Invitrogen). […]

T1 sequence (P20152 2-466 limits assumed): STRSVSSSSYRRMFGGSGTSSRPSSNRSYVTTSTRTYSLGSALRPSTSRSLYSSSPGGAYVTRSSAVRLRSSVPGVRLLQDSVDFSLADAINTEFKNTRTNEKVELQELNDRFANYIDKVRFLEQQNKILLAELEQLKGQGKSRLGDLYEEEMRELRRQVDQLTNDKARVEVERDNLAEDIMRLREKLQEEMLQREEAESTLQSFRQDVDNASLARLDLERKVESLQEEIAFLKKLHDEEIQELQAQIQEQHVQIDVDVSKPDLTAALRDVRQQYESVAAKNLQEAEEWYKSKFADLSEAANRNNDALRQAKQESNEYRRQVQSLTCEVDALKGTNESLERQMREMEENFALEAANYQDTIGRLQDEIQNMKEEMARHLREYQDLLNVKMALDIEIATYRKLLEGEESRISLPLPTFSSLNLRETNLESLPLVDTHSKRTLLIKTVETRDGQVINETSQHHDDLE

B1: B1 antibody (Fc fusion)
scFv: MAQVQLLESGGGLVQPGGSLTLACAASGFNFNNYNMNWVRQAPGRGLEWVAFISSAADTVHYADSVEGRFTISRDNAKNSLYLHMNSLRDEDTAVYYCARQLLYWGQGTLVTVSSGGGGGSQAVLTQPSSLSASPGASVSLTCTLRSGINVGAYRIYWYQQKPGSPPQFLLRYKSDSDKQQGSGVPSRFSGSRDASANAGILLISWLRSEDEADYYCAIWHSSAWVFGGGTQLTVLG
notes: also called B1 Ab; B1Ab; not shown: Fc tag of the purified ScFv-Fc fusion protein
  binding result: binds

— US20200140851A1 (Scripps Research, published 2020)
